Changes are numbered by the printed parent chain. In names and notes the source's numbering stands.
T1: human gamma common chain expressed on CHO cells (human, UniProt P31785 23-369)
T1 construct: whole, on cells; Control protein; also called human IL-2R-γ common subunit; human gamma (γ) common chain
T1 sequence (looked up): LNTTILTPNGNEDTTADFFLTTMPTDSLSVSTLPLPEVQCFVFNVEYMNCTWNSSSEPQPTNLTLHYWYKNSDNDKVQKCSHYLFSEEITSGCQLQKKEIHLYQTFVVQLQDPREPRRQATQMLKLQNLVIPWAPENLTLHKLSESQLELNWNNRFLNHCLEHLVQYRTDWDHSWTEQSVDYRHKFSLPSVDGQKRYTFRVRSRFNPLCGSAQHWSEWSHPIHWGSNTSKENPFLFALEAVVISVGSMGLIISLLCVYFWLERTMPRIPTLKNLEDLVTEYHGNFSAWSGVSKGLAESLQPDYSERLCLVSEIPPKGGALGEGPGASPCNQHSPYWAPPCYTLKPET

T2: human IL-2Rβ (human, UniProt P14784 27-239)
T2 construct: Bought
T2 sequence (looked up): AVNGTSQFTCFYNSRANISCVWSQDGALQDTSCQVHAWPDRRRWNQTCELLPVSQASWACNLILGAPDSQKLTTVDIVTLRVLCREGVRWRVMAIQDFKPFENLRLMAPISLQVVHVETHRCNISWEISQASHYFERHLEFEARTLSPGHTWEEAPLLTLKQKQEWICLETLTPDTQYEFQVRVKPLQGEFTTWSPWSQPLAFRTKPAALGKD

B1: AbP (antibody, human IgG1, V domains shown)
VH: QVQLQESGPGLVKPSETLSLTCAVSGYSISSGYYWGWIRQPPGKGLEWIGSISHTGNTYYNPPLKSRVTISVDTSKNQFSLKLSSVTAADTAVYYCARGGGISRPEYWGQGTLVTVSS
VL: SSELTQDPAVSVALGQTVRITCQGDSLRTYYASWYQQKPGQAPVLVIYGKHKRPSGIPDRFSGSSSGNTASLTITGAQAEDEADYYCVSRSAKGNPHVLFGGGTQLTVL
notes: Human IgG1 triple-mutant (L234A, L235A, G237A); Framework limits derived; also called VHP/VL20; VHPTM/VL20
B2: AbT (antibody, human IgG1, V domains shown)
VH: B1 VH
VL: B1 VL with S89A, A92N
notes: Human IgG1 triple-mutant (L234A, L235A, G237A); Framework limits derived; also called VHP/VL9; VHPTM/VL9
B3: AbR (antibody, human IgG1, V domains shown)
VH: B1 VH with G99F, G100M, I102F, S103G
VL: B1 VL with S89T, A92V
notes: Purified form: human IgG1 double-mutant (L234A, G237A); Framework limits derived; also called VH3/VL18; VH3DM/VL18
B4: AbS (antibody, human IgG1, V domains shown)
VH: B1 VH
VL: B1 VL with V88M, A92I, K93W
notes: Human IgG1 triple-mutant (L234A, L235A, G237A); Framework limits derived; also called VHP/VL6; VHPTM/VL6
B5: parental 18A5 antibody (antibody, V domains shown)
VH: B1 VH with P14T, Q110K
VL: SSELTQDPPVSVALGQTVTLTCQGDSLRTYYASWYQQKSGQAPILLLYGKHKRPSGIPDRFSGSTSGDTASLTITGAQAEDEADYYCNSRDSSGNPHVLFGGGTQLTVL
B6: AbW (antibody, human IgG1, V domains shown)
VH: B1 VH with G99F, G100M, I102F, S103G
VL: B1 VL with S89T, A92V
B7: AbV (antibody, human IgG1, V domains shown)
VH: B1 VH with G99F, G100M, I102F, S103G
VL: B1 VL with S89A, A92V, K93V

target: T3, human IL-21R expressed on cells (human, UniProt Q9HBE5 20-538); assay: cell-based or functional assay
T3 sequence (Q9HBE5 20-538 limits assumed): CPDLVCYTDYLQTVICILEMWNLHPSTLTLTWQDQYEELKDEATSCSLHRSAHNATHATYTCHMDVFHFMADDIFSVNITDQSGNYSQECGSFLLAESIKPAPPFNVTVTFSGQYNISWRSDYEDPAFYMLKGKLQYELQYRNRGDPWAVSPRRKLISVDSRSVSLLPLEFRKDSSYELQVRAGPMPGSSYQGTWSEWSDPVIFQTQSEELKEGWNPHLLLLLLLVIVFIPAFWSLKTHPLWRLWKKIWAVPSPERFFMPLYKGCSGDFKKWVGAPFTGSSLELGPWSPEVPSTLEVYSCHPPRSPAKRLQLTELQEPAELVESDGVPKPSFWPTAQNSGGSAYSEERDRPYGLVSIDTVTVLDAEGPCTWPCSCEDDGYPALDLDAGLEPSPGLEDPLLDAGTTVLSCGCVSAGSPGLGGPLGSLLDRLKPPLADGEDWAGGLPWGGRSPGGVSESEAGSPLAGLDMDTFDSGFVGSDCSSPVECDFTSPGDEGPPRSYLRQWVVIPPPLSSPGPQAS

Binder	Human IL-21R-BaF3 Proliferation IC50	Human IL-21R-TF1 Proliferation IC50
B1	0.75 nM	3.48 nM
B2	0.67 nM	3.26 nM
B3	0.87 nM	3.94 nM
B4	1.53 nM	5 nM

target: T4, murine IL-21R expressed on cells (murine, UniProt Q9JHX3 20-529); assay: cell-based or functional assay
T4 sequence (Q9JHX3 20-529 limits assumed): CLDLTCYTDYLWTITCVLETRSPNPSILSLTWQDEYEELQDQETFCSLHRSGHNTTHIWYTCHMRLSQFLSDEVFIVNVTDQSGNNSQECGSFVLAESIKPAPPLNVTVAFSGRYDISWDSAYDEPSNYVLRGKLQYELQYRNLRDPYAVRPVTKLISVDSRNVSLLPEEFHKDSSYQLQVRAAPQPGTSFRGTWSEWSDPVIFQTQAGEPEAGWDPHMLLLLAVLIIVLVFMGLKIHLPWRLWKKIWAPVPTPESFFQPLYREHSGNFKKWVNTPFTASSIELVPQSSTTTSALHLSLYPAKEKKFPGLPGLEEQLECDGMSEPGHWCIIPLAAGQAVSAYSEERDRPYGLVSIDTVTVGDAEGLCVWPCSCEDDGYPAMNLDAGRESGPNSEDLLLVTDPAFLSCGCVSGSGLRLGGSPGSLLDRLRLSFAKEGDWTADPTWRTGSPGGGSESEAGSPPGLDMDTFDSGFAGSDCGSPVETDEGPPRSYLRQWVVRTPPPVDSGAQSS

Binder	Murine IL-21R-BaF3 Proliferation IC50
B1	0.03 nM
B2	0.093 nM
B3	0.302 nM
B4	0.04 nM

target: T3, human IL-21R expressed on cells; assay: cell-based or functional assay; remark: another data set of the same source

Binder	Human IL-21R-BaF3 Neutralization IC50	Human IL-21R-TF1 Neutralization IC50
B5	1.71 nM	14 nM
B2	0.3 nM	2.32 nM
B3	0.56 nM	1.63 nM
B4	0.68 nM	6.67 nM

target: T4, murine IL-21R expressed on cells; assay: cell-based or functional assay; remark: another data set of the same source

Binder	Murine IL-21R-BaF3 Neutralization IC50
B5	177 nM
B2	0.05 nM
B3	0.34 nM
B4	0.04 nM

target: T3, human IL-21R expressed on cells; assay: cell-based or functional assay; remark: another data set of the same source

Binder	Neutralization of B cell proliferation IC50
B5	1.86 nM
B2	0.14 nM
B3	0.22 nM
B4	0.44 nM

target: T3, human IL-21R expressed on cells; assay: cell-based or functional assay; remark: another data set of the same source

Binder	Neutralization of T cell Proliferation IC50 (nM), human primary CD4+ T cells
B1	0.02 nM
B5	1.42 nM
B2	0.03 nM
B3	0.04 nM
B4	0.06 nM

target: T4, murine IL-21R expressed on cells; assay: cell-based or functional assay; remark: another data set of the same source

Binder	Neutralization of T cell Proliferation IC50 (nM), murine primary CD8+ T cells
B5	> 85 nM
B2	0.61 nM
B3	0.13 nM
B4	0.02 nM

target: rat IL-21R expressed on cells (rat); assay: cell-based or functional assay

Binder	IC50 (nM) experiment 1, rat T cell proliferation	IC50 (nM) experiment 2, rat T cell proliferation
B6	159 nM	94.7 nM
B7	70.5 nM	59.2 nM
B4	36 nM	27.1 nM

target: T3, human IL-21R expressed on cells; assay: cell ELISA on transfected CHO cells, 13 nM IgG
Protocol: (§1) A subset of binding proteins was tested for binding to rat, cynomolgus monkey, human IL-21R, or human IL-2R-γ common subunit expressed transiently on the surfaces of CHO-PA-Dukx cells. Cells were transfected 48 hr prior to the assay. On the day of the assay, cells were washed gently 5× in PBS containing 0.9 mM CaCl₂ and 0.45 mM MgCl₂ (PBS/CaMg) on an automated plate washer (Titertek, Huntsville, Ala.), and blocked for 1 hr at RT in PBS/CaMg/5% nonfat dry milk. Conditioned media from transiently expressed anti-IL-21R IgGs were serially diluted in blocking buffer and added to the cells in the blocked plates for 1 hr at RT. Cells were washed 5× with PBS/CaMg and then incubated with horseradish peroxidase-conjugated anti-human IgG for 1 hr at RT. Cells were then washed 10× in PBS/CaMg and all of the wash buffer was removed. Cells were incubated with 100 μl TMB until the color reaction reached saturation, stopped with 100 μl of 0.18 M H₂SO₄, and read at A450 on a Perkin Elmer ENVISION™ plate reader.

Binder	A450 at 13 nM Ab in cell ELISA
B1	1.31 A450
B2	1.08 A450
B3	1.33 A450
B4	1.02 A450

target: T5, rat IL-21R expressed on cells (rat); assay: cell ELISA on transfected CHO cells, 13 nM IgG
T5 construct: whole, on cells; Transiently transfected CHO-PA-Dukx cells
Protocol: as §1

Binder	A450 at 13 nM Ab in cell ELISA
B1	1.03 A450
B2	0.994 A450
B3	1.11 A450
B4	1.17 A450

target: T6, cynomolgus monkey IL-21R expressed on CHO cells (cynomolgus monkey); assay: cell ELISA on transfected CHO cells, 13 nM IgG
T6 construct: whole, on cells
Protocol: as §1

Binder	A450 at 13 nM Ab in cell ELISA
B1	1.31 A450
B2	1.22 A450
B3	1.35 A450
B4	1.22 A450

target: T1, human gamma common chain expressed on …; assay: cell ELISA on transfected CHO cells, 13 nM IgG
Protocol: as §1

Binder	A450 at 13 nM Ab in cell ELISA
B1	0.112 A450
B2	0.102 A450
B3	0.109 A450
B4	0.118 A450

target: T2, human IL-2Rβ; assay: BIACORE: antibody captured on anti-human IgG, 50 nM analyte injected
Protocol: (§2) The specificity of binding of a subset of transiently expressed anti-IL-21R binding proteins (here antibodies) was tested on a BIACORE™ 2000 surface plasmon resonance instrument. Anti-human-IgG, anti-murine immunoglobulin antibodies, and murine IL-21R-H/F were immobilized onto a research-grade carboxymethyl-dextran chip (CM5) using standard amine coupling. The sensor chip surface was activated with EDC/NHS for 7 min at a flow rate of 20 μl/min. The first flow cell was used as reference surface to correct for bulk refractive index, matrix effects, and nonspecific binding. […] Remaining activated groups were blocked with 1.0 M ethanolamine (pH 8.0). The molecular weights of the anti-human IgG and the anti-murine IgG were both 150 kD, and the molecular weight of the IL-21R monomer was 27 kD.
(§3) Conditioned media containing anti-IL-21R antibodies and antibody controls (murine anti-human IL-2Rβ and murine anti-human IL-4R(R&D Systems, Minneapolis, Minn.); human anti-human IL-13 (Wyeth, Cambridge, Mass.)) were diluted in HBS/EP buffer supplemented with 0.2% bovine serum and injected onto all four flow cells of the BIACORE™ chip, capturing 500-700 (RU) of antibody on the species-appropriate capture antibody. Following a 5 sec washing period, 50 nM solutions of a positive control protein (murine IL-21R-H/F), two human proteins related to IL-21R (human IL-2Rβ and human sIL-4R(R&D Systems)), or an unrelated His/FLAG-tagged protein (human IL-13-H/F), were injected over the captured antibodies on the chip. The association and dissociation phases were monitored for 120 and 180 sec, respectively, followed by two 5 μl injections of glycine (pH 1.5) to regenerate a fully active capturing surface. All binding experiments were done at 25° C. in HBS/EP buffer. Blank and buffer effects were subtracted for each sensorgram using double referencing.

Binder	binding result
B1	no binding (tested: 50 nM)
B2	no binding (tested: 50 nM)
B3	no binding (tested: 50 nM)
B4	no binding (tested: 50 nM)

target: T7, human soluble IL-4R (human, UniProt P24394 26-231, limits assumed); assay: as above
T7 construct: soluble; also called human sIL-4R
T7 sequence (P24394 26-231 limits assumed): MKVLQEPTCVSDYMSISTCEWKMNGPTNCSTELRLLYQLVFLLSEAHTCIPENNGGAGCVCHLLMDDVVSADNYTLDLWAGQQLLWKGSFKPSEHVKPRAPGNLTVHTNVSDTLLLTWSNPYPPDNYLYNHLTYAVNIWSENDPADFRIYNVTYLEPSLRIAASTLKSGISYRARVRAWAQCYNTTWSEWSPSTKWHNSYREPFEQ
Protocol: as §2, §3

Binder	binding result
B1	no binding (tested: 50 nM)
B2	no binding (tested: 50 nM)
B3	no binding (tested: 50 nM)
B4	no binding (tested: 50 nM)

target: T8, human IL-13-His/FLAG (human, UniProt P35225 35-146, limits assumed); assay: as above
T8 construct: Unrelated His/FLAG-tagged control; also called human IL-13-H/F
T8 sequence (P35225 35-146 limits assumed): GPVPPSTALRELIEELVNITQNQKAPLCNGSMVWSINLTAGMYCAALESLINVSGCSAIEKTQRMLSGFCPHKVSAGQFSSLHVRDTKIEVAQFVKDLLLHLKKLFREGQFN
Protocol: as §2, §3

Binder	binding result
B1	no binding (tested: 50 nM)
B2	no binding (tested: 50 nM)
B3	no binding (tested: 50 nM)
B4	no binding (tested: 50 nM)

Source: patent US20090298167A1 (Pfizer, published 2009)
